According to publication PMC5760085:

Legend:
[1] = target: Aleuria aurantia lectin (Aleuria aurantia) (UniProt P18891); test: BLI; biotinylated AAL (1.5 μg/mL) loaded on High Precision Streptavidin (SAX) biosensors, mucin in solution; Octet RED96, kinetics mode, 25°C, 1000 rpm, sample diluent
[2] = target: Aleuria aurantia lectin (Aleuria aurantia) (UniProt P18891); test: BLI; competition with L-Fuc: AAL-loaded biosensor blocked with 0.1 M L-Fuc in the second baseline step, and the mucin sample incubated with L-Fuc (BSM 1 μM to 0.1 M; MUC5B 1 μM to 100 μM)

UniProt P18891, sequence (P18891 whole entry): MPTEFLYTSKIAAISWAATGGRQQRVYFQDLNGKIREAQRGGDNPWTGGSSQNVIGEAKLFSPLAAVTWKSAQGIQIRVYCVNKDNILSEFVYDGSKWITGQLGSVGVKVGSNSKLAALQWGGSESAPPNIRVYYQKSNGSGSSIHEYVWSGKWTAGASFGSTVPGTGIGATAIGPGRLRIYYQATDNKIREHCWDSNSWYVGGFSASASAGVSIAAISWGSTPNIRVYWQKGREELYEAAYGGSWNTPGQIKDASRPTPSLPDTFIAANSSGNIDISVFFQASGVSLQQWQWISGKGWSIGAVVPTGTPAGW

## Bovine Submaxillary Mucin (natural protein)
[1]
  fold lower binding response than MUC5B: 10 times lower
[2]
  fold lower association with 100 μM Fuc than without Fuc: 5 times lower
